Experimental data: article PMC11229353 (Nucleic Acids Research, 2024)
“Also recorded” adds a separate entry of the source. The star is where a group is joined. Biotin = O=C1N[C@H]2[C@H](CS[C@H]2CCCCC(=O)*)N1

B2: DMC1 (untagged full-length human DMC1, wild type) (natural protein, UniProt Q14565 1-340, looked up)
chain: MKEDQVVAEEPGFQDEEESLFQDIDLLQKHGINVADIKKLKSVGICTIKGIQMTTRRALCNVKGLSEAKVDKIKEAANKLIEPGFLTAFEYSEKRKMVFHITTGSQEFDKLLGGGIESMAITEAFGEFRTGKTQLSHTLCVTAQLPGAGGYPGGKIIFIDTENTFRPDRLRDIADRFNVDHDAVLDNVLYARAYTSEHQMELLDYVAAKFHEEAGIFKLLIIDSIMALFRVDFSGRGELAERQQKLAQMLSRLQKISEEYNVAVFVTNQMTADPGATMTFQADPKKPIGGHILAHASTTRISLRKGRGELRIAKIYDSPEMPENEATFAITAGGIGDAKE

Key:
[1] = target: T1, DMC1 (Homo sapiens, UniProt Q14565); test: Biolayer interferometry; assay type: binding; conditions: immobilized biotinylated peptide, DMC1 concentration of 5 μM, 25°C
T1 sequence (Q14565 1-340): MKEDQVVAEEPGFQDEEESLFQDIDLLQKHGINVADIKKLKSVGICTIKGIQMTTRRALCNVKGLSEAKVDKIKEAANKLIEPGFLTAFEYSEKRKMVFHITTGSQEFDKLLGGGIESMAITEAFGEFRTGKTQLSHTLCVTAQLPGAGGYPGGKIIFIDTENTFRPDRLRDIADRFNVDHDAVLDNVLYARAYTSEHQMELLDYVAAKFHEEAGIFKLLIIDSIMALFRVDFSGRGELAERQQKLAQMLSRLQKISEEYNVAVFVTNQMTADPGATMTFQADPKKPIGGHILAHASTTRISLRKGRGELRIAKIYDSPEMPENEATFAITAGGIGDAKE

[2] = tested on: DMC1–ssDNA filaments; test: Electrophoretic mobility shift assay; assay type: binding, human; conditions: EMSA, 2 μM DMC1, 2 μM PhePP F2s3, 90 nt ssDNA, Ca-ATP, 30 min 37°C
[3] = target: B2; test: ITC
[4] = target: the molecule itself; test: crystal structure
[5] = target: B2; test: pull-down
[6] = target: B2; test: BLI
[7] = target: B2; test: BLI; remark: listed apart in the source
[8] = target: T2, DMC1;BRCA2 F2s3 (PhePP) (human;human, UniProt Q14565;P51587 1-340;2379-2433, |); test: EMSA
T2 sequence 1: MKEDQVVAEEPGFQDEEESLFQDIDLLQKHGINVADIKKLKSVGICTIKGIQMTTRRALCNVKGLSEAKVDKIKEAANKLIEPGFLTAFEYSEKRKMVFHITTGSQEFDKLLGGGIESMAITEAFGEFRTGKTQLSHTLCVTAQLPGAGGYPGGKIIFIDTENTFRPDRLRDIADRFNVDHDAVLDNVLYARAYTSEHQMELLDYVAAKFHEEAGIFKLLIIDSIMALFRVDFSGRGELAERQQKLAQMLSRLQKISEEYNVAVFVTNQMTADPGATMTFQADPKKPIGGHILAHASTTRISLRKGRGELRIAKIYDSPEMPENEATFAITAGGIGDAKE
T2 sequence 2: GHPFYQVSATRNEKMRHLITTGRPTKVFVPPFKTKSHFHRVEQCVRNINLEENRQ

[9] = target: T3, DMC1 (human, UniProt Q14565 1-340); test: EMSA
T3 sequence: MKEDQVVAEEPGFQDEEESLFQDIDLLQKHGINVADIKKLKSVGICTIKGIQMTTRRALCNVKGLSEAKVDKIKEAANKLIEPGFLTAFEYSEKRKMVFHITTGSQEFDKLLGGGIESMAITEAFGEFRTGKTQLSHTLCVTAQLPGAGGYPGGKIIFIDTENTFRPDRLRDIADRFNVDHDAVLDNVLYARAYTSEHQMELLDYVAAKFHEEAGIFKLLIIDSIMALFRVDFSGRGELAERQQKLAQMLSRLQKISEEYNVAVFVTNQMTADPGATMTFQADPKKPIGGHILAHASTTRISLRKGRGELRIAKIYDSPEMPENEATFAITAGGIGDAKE

[10] = target: T4, DMC1 F89A (human, UniProt Q14565 1-340, F89A); test: EMSA
T4 sequence: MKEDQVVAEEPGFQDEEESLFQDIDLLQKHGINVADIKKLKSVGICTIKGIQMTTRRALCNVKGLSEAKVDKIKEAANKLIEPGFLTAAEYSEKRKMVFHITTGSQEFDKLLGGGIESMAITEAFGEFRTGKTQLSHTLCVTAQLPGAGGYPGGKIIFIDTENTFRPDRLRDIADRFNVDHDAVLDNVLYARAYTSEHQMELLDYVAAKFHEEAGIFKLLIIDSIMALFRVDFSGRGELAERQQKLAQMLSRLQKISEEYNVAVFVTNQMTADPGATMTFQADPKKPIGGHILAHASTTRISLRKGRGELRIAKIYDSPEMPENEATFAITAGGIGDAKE

Molecule: Biotin-GSG-SNHSFGGSFRTASNKEIKLSEHNIKKSKMFFKDIEE-NH2 [BRC1, reference compound]
- binding to DMC1 detected by BLI [1]: No binding was detected; also recorded: no interaction could be detected

Molecule: Biotin-GSG-TTGRPTKVAVPPFKTKSHFH-NH2 [PhePPmut]
- binding to DMC1 detected by BLI [1]: No binding was detected

Molecule: Biotin-GSG-VSPAAQKAFQPPRSSGTKYE-NH2 [TR2]
- binding to DMC1 detected by BLI [1]: No binding was detected; also recorded: no interaction could be detected

Molecule: F2s3: purified bacterially expressed BRCA2 fragment 2379–2433 containing the PhePP motif
- effect on electrophoretic mobility of the DMC1–ssDNA complex [2]: reduced electrophoretic mobility

B1: BRCA2 F2s3 (2379–2433), purified recombinant peptide (domain or fragment, human, UniProt P51587 2379-2433, looked up)
chain: GHPFYQVSATRNEKMRHLITTGRPTKVFVPPFKTKSHFHRVEQCVRNINLEENRQ
- Kd [3]: 3000 ± 500 nM

Molecule: B2
- stoichiometry N [4]: 8

B3: GST-tagged BRCA2 F2 (2351–2479), wild type (domain or fragment, human, UniProt P51587 2351-2479, looked up)
chain: APGQEFLSKSHLYEHLTLEKSSSNLAVSGHPFYQVSATRNEKMRHLITTGRPTKVFVPPFKTKSHFHRVEQCVRNINLEENRQKQNIDGHGSDDSKNKINDNEIHQFNKNNSNQAVAVTFTKCEEEPLD
- binding result [5]: binds

B4: GST-tagged BRCA2 F2 K2404A (domain or fragment, human, UniProt P51587 2351-2479, looked up)
chain: APGQEFLSKSHLYEHLTLEKSSSNLAVSGHPFYQVSATRNEKMRHLITTGRPTAVFVPPFKTKSHFHRVEQCVRNINLEENRQKQNIDGHGSDDSKNKINDNEIHQFNKNNSNQAVAVTFTKCEEEPLD
- binding result [5]: binds

B5: GST-tagged BRCA2 F2 R2401A (domain or fragment, human, UniProt P51587 2351-2479, looked up)
chain: APGQEFLSKSHLYEHLTLEKSSSNLAVSGHPFYQVSATRNEKMRHLITTGAPTKVFVPPFKTKSHFHRVEQCVRNINLEENRQKQNIDGHGSDDSKNKINDNEIHQFNKNNSNQAVAVTFTKCEEEPLD
- binding result [5]: binds

B6: GST-tagged BRCA2 F2s3 K2404A (domain or fragment, human, UniProt P51587 2379-2433, looked up)
chain: GHPFYQVSATRNEKMRHLITTGRPTAVFVPPFKTKSHFHRVEQCVRNINLEENRQ
- binding result [5]: binds

B7: GST-tagged BRCA2 F2s3 R2401A (domain or fragment, human, UniProt P51587 2379-2433, looked up)
chain: GHPFYQVSATRNEKMRHLITTGAPTKVFVPPFKTKSHFHRVEQCVRNINLEENRQ
- binding result [5]: binds

Molecule: Biotin-GSGTTGRPTKVFVPPFKTKSHFH-NH2 [biotinylated BRCA2 F2s6 peptide (Biotin-GSG-F2s6-NH2)]
- Kd [6]: ~1 nM

Molecule: Biotin-GSGRSRGILGKFVPPIPKQDGGE-NH2 [biotinylated FIGNL1 P-motif peptide]
- Kd [6]: ~16200 nM

Molecule: Biotin-GSGSAESKKPKWVPPAASGGSRS-NH2 [biotinylated RAD51AP1 P-motif peptide]
- Kd [6]: ~1600 nM

Molecule: Ac-TTGRPTKVFVPPFKTKSHFH-NH2 [BRCA2 F2s6 (2398–2417) synthetic peptide]
- Kd [7]: 2100 ± 500 nM
- Kd [3]: 3400 ± 1300 nM

B8: AF-647-SK3-90 ssDNA (ssDNA)
DNA: AATTCTCATTTTACTTACCGGACGCTATTAGCAGTGGCAGATTGTACTGAGAGTGCACCATATGCGGTGTGAAATACCGCACAGATGCGT
- binding result [8]: binds
- binding result [9]: binds
- binding result [10]: binds
